16 molecules from patent US20230357414A1 (SYNTHEKINE, published 2023) can be followed below.

Assay [1] deals with T1, extracellular domain of mouse IL12Rb2 (614 amino acids, amino acids 24-637 of the mIL12Rb2 precursor, UniProt … (mouse, UniProt P97378 24-637)).
T1 construct: also called mIL12Rb2 ECD; mIL12Rb2 ECD antigen
T1 sequence: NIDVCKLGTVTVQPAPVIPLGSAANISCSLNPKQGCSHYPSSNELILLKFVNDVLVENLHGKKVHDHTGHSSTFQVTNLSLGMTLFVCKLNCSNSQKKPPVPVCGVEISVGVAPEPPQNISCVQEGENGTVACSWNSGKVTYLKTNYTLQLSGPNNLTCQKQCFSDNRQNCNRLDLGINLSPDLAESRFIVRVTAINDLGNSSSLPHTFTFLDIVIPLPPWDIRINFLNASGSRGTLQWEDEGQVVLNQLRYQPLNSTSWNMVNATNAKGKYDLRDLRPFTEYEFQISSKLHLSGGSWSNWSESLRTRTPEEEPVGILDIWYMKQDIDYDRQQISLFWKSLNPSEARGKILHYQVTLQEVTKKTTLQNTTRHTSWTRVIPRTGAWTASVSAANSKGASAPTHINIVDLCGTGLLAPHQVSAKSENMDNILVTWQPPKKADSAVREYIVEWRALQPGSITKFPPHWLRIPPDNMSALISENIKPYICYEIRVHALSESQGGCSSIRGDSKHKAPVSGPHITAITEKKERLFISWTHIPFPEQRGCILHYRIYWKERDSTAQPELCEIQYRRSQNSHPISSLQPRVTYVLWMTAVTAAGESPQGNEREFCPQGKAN
Description: periplasmic extract ELISA on antigen-coated plate; positive if A450 at least threefold over PBS-coated control. As for the experimental part: (§1) Upon completion of the biopanning of Example 3, three 96-well plates of individual phage clones were isolated in order to perform periplasmic extract ELISA (PE-ELISA) on IL12Rb2 coated plates to identify positive VHH binders that selectively bound IL12Rb2. A 96-well plate was coated with IL12Rb2 and PBS under the same conditions. Next, wells were blocked at 37° C. for 1 h. Then, 100 μl of extracted antibodies was added to each well and incubated for 1 h. Subsequently, 100 μl of anti-tag polyclonal antibody conjugated to HRP was added to each well and incubated at 37° C. for 1 h. Plates were developed with TMB substrate. The reaction was stopped by the addition of H2SO4. Absorbance at 450 nm was read on a microtiter plate reader. Antibodies with absorbance of the antigen-coated well at least threefold greater than PBS-coated control are VHHs that specifically bind to IL 12Rb2. Positive clones were sequenced, and sequences analyzed to identify unique clonotypes
In general terms: In an ELISA, binding on a coated surface is turned into a signal by an enzyme label.

In assay [2] the target is T2, extracellular domain of human IL12Rb2 (amino acids 24-622 of hIL12Rb2, UniProt Q99665) (human, UniProt Q99665 24-622).
T2 construct: also called hIL12Rb2 ECD; hIL12Rb2-ECD
T2 sequence: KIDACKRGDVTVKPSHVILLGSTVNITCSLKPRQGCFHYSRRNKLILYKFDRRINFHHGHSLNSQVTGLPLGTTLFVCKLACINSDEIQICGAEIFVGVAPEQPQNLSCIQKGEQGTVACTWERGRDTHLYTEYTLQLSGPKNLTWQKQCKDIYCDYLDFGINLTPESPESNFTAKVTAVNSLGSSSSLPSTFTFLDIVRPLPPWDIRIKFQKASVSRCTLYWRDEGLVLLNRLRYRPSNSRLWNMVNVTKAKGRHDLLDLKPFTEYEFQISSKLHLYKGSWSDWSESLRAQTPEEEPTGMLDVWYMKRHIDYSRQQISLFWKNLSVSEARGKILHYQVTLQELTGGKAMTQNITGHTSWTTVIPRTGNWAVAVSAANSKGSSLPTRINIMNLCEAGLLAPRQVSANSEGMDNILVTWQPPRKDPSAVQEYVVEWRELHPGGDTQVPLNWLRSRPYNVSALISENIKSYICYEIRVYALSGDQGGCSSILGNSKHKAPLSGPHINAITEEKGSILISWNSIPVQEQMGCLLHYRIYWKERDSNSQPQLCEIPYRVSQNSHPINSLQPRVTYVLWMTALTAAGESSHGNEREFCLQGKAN
The assay is described as above. As for the experimental part: as §1

Changes are numbered by the printed parent chain.

B1: mIL12Rb2 VHH8 (VHH)
VHH: QVQLQESGGGSVQAGGSLRLSCVVSGKAYGGAWFRQAQGKSREGVAAIWIGTGTTFYADSVKGRFTISRDNAKNTVYLQMDGLKPEDTAMYYCAADDRPGYRDPLAPVSYNHWGQGTQVTVSS
notes: Camel VHH, tested as a periplasmic extract of a phage clone; also called anti-mouse IL12Rb2 VHH8; not shown: HA/His tag encoded by the pMECS phagemid
Turning to B1, the binding result in assay [1] was “binds”.

B2: mIL12Rb2 VHH9 (VHH)
VHH: B1 VHH with R19T, Y29F, S41G, E86D
notes: Camel VHH, tested as a periplasmic extract of a phage clone; also called anti-mouse IL12Rb2 VHH9; not shown: HA/His tag encoded by the pMECS phagemid
For B2, the binding result in assay [1] is on record as “binds”.

B3: mIL12Rb2 VHH4 (VHH)
VHH: B1 VHH with A14V, V23A, A28L, S41G, M90L
notes: Camel VHH, tested as a periplasmic extract of a phage clone; also called anti-mouse IL12Rb2 VHH4; not shown: HA/His tag encoded by the pMECS phagemid
As to B3, the binding result in assay [1] is on record as “binds”.

B4: mIL12Rb2 VHH14 (VHH)
VHH: QVQLQESGGGSVQAGGSLRLSCAASGATNSNRHMGWFRQAPGKEREGVAAIYTGYTGGGNTYYADSVRDRFTISQDNAKNTLYLQMNSLTPEDTAMYYCAADLTRWYSGGWRDPRGYKYWGQGTQVTVSS
notes: Camel VHH, tested as a periplasmic extract of a phage clone; also called anti-mouse IL12Rb2 VHH14; not shown: HA/His tag encoded by the pMECS phagemid
For B4, the binding result in assay [1] was “binds”.

B5: mIL12Rb2 VHH16 (VHH)
VHH: B4 VHH with R68K
notes: Camel VHH, tested as a periplasmic extract of a phage clone; also called anti-mouse IL12Rb2 VHH16; not shown: HA/His tag encoded by the pMECS phagemid
B5: in assay [1], the binding result is listed as “binds”.

B6: mIL12Rb2 VHH2 (VHH)
VHH: QVQLQESGGGSVQAGGSLRLSCAASGVTYGSYYMAAWFRQAPGKEREGVASIYGGSDSTYYADSVLGRFTISQDNGKNTLYLQMNSLKPDDTAMYYCAAAPPGKWFLKRLEGHNYSYWGQGTQVTVSS
notes: Camel VHH, tested as a periplasmic extract of a phage clone; also called anti-mouse IL12Rb2 VHH2; not shown: HA/His tag encoded by the pMECS phagemid
Turning to B6, the binding result in assay [1] was “binds”.

B7: VHH7 (VHH)
VHH: QVQLQESGGGSVQAGGSLRLSCAASGVTYSRYCMGWFRQAPGLERERVATIYSRGIITYYTDSVKGRFTISQDSAKKTVYLQMNSLKPEDTAMYYCAATRETYGGSGDCDYESVYNYWAQGTQVTVSS
notes: Camel VHH, tested as a periplasmic extract of a phage clone; also called anti-human IL12Rb2 VHH7; hIL12Rb2 VHH; not shown: HA/His tag encoded by the pMECS phagemid
Regarding B7, the binding result in assay [2] was “binds”.

B8: VHH12 (VHH)
VHH: B7 VHH with S85M
notes: Camel VHH, tested as a periplasmic extract of a phage clone; also called anti-human IL12Rb2 VHH12; hIL12Rb2 VHH; not shown: HA/His tag encoded by the pMECS phagemid
On to B8, for which the binding result in assay [2] is “binds”.

B9: VHH14 (VHH)
VHH: B7 VHH with T50H, D110G
notes: Camel VHH, tested as a periplasmic extract of a phage clone; also called anti-human IL12Rb2 VHH14; hIL12Rb2 VHH; not shown: HA/His tag encoded by the pMECS phagemid
As for B9, the binding result in assay [2] is given as “binds”.

B10: VHH16 (VHH)
VHH: B7 VHH with T50H, D110S, Y117H
notes: Camel VHH, tested as a periplasmic extract of a phage clone; also called anti-human IL12Rb2 VHH16; hIL12Rb2 VHH; not shown: HA/His tag encoded by the pMECS phagemid
Regarding B10, in assay [2], the binding result is recorded as “binds”.

B11: mIL12Rb2 VHH1 (VHH)
VHH: QVQLQESGGGSVQAGGSLRLSCAASGYTYSNRHMGWFRQAPGKEREGVAAIYTGGGSTYYADSVKDRFTISQDNAKNTLYLQMNSLTPEDTAMYYCAADLTRWYSGGWRDPRGYKYWGQGTQVTVS
notes: Camel VHH, tested as a periplasmic extract of a phage clone; also called anti-mouse IL12Rb2 VHH1; not shown: HA/His tag encoded by the pMECS phagemid
Regarding B11, the binding result in assay [1] is “binds”.

B12: VHH6 (VHH)
VHH: QVQLQESGGGLVQAGGSLRLSCQASGYTYGLFCMGWFRQVSGKKREGVAVVDSPGGRHVADSLKGRFTISKDNANNILYLDMTNLKSEDTATYYCAADPEKYCFLFSDAGYQYWGQGTQVTVSS
notes: Camel VHH, tested as a periplasmic extract of a phage clone; also called anti-human IL12Rb2 VHH6; hIL12Rb2 VHH; not shown: HA/His tag encoded by the pMECS phagemid
In the case of B12, the binding result in assay [2] is “binds”.

B13: mIL12Rb2 VHH15 (VHH)
VHH: QVQLQESGGGSVQDGGSLRLSCAASGDIYARNCMGWFRQAPGKEREKIAVADTGGRSPYYADSVKGRFTISRDNAKNTVDLQMNSLKPEDTAVYYCAAGPLVPVVNTAARCVYEYWGQGTQVTVSS
notes: Camel VHH, tested as a periplasmic extract of a phage clone; also called anti-mouse IL12Rb2 VHH15; not shown: HA/His tag encoded by the pMECS phagemid
Take B13: the binding result in assay [1] was “binds”.

B14: mIL12Rb2 VHH5 (VHH)
VHH: QVQLQESGGGSVQAGGSLRLSCAASGITYRGVWMGWFRQAPGKEREGVATIYTGSGHTYYADSVKGRFTISQDNAKNTVYLQMNSLKPEDTAMYYCAARTVGGTFYTLAADSFNTWGQGTQVTVSS
notes: Camel VHH, tested as a periplasmic extract of a phage clone; also called anti-mouse IL12Rb2 VHH5; not shown: HA/His tag encoded by the pMECS phagemid
B14: in assay [1], the binding result was “binds”.

B15: VHH5 (VHH)
VHH: QVQLQESGGGLVQPGGSLKLSCAASGFTFSTYAMSWVRQAPGKEPEWISRISSGGGNTYYADAVKGRFAISRDNAKNTLYLQLNSLKTEDTAIYVCTMDDYYGGSWHPISRGHGTQVTVSS
notes: Camel VHH, tested as a periplasmic extract of a phage clone; also called anti-human IL12Rb2 VHH5; hIL12Rb2 VHH; not shown: HA/His tag encoded by the pMECS phagemid
With B15, the binding result in assay [2] was “binds”.

B16: VHH3 (VHH)
VHH: QVQLQESGGGSVQAGGSLRLSCTASGLTFDDVEMAWYRQGPGDDYDLVSSINTDSRVYYVDSVKDRFTISRDNAKNTLYLQMNNLKPEDTAVYYCAADPWGGDLRGYPNYWGQGTQVTVSS
notes: Camel VHH, tested as a periplasmic extract of a phage clone; also called anti-human IL12Rb2 VHH3; hIL12Rb2 VHH; not shown: HA/His tag encoded by the pMECS phagemid
As to B16, in assay [2], the binding result is on record as “binds”.
